Source: patent US20190270815A1 (WUXI BIOLOGICS IRELAND, published 2019)

Key:
[1] = biological target: T1, human PD-1 expressed on cells (human, UniProt Q15116 25-288); assay: FACS on CHO-S cells expressing human PD-1
T1 construct: whole, on cells; also called PD-1 expressing CHO cell; PD-1 transfected CHO-S cells
Method: 3.1 Binding affinity of PD-1 antibodies to cell surface PD-1 molecules tested by flow cytometry (FACS): Antibody binding affinity to cell surface PD-1 was performed by FACS analysis. CHO-S cells expressing human PD-1 were transferred in to 96-well U-bottom plates (BD) at a density of 5×10⁵ cells/ml. Tested antibodies were 1:2 serially diluted in wash buffer (1×PBS/1% BSA) and incubated with cells at 4° C. for 1 h. The secondary antibody goat anti-human IgG Fc FITC (3.0 moles FITC per mole IgG, (Jackson Immunoresearch Lab) was added and incubated at 4° C. in the dark for 1 h. The cells were then washed once and resuspended in 1×PBS/1% BSA, and analyzed by flow cytometery (BD). Fluorescence intensity will be converted to bound molecules/cell based on the quantitative beads Quantum™ MESF Kits, Bangs Laboratories, Inc.). KD was calculated using Graphpad Prism5.

[2] = biological target: T2, hPD-1 ECD-His point mutant F 52 (to alanine) (human, UniProt Q15116 25-170); assay: ELISA, antibody coated, His-tagged PD-1 mutant supernatant; fold change vs silent alanine substitutions
T2 construct: extracellular domain
Method: (§1) After interacting with the supernatant that contains quantified PD-1 mutant, HRP conjugated anti-His antibody (Rockland, Cat#200-303-382) was added as detection antibody. Absorbance was normalized according to the average of control mutants. After setting an additional cutoff to t4he binding fold change (<0.55), the final determined epitope residues were identified.

[3] = biological target: T3, hPD-1 ECD-His point mutant V 64 (to alanine) (human, UniProt Q15116 25-170); assay: as above
T3 construct: extracellular domain
Method: as §1

[4] = biological target: T4, hPD-1 ECD-His point mutant L 65 (to alanine) (human, UniProt Q15116 25-170); assay: as above
T4 construct: extracellular domain
Method: as §1

[5] = biological target: T5, hPD-1 ECD-His point mutant W 67 (to alanine) (human, UniProt Q15116 25-170); assay: as above
T5 construct: extracellular domain
Method: as §1

[6] = biological target: T6, hPD-1 ECD-His point mutant F 82 (to alanine) (human, UniProt Q15116 25-170); assay: as above
T6 construct: extracellular domain
Method: as §1

[7] = biological target: T7, hPD-1 ECD-His point mutant P 83 (to alanine) (human, UniProt Q15116 25-170); assay: as above
T7 construct: extracellular domain
Method: as §1

[8] = biological target: T8, hPD-1 ECD-His point mutant D 85 (to alanine) (human, UniProt Q15116 25-170); assay: as above
T8 construct: extracellular domain
Method: as §1

[9] = biological target: T9, hPD-1 ECD-His point mutant R 94 (to alanine) (human, UniProt Q15116 25-170); assay: as above
T9 construct: extracellular domain
Method: as §1

[10] = biological target: T10, hPD-1 ECD-His point mutant F 95 (to alanine) (human, UniProt Q15116 25-170); assay: as above
T10 construct: extracellular domain
Method: as §1

[11] = biological target: T11, hPD-1 ECD-His point mutant F 106 (to alanine) (human, UniProt Q15116 25-170); assay: as above
T11 construct: extracellular domain
Method: as §1

[12] = biological target: T12, hPD-1 ECD-His point mutant C 123 (to alanine) (human, UniProt Q15116 25-170); assay: as above
T12 construct: extracellular domain
Method: as §1

[13] = biological target: T13, hPD-1 ECD-His point mutant L 128 (to alanine) (human, UniProt Q15116 25-170); assay: as above
T13 construct: extracellular domain
Method: as §1

[14] = biological target: T14, hPD-1 ECD-His point mutant A 129 (to glycine) (human, UniProt Q15116 25-170); assay: as above
T14 construct: extracellular domain
Method: as §1

[15] = biological target: T15, hPD-1 ECD-His point mutant P 130 (to alanine) (human, UniProt Q15116 25-170); assay: as above
T15 construct: extracellular domain
Method: as §1

[16] = biological target: T16, hPD-1 ECD-His point mutant K 131 (to alanine) (human, UniProt Q15116 25-170); assay: as above
T16 construct: extracellular domain
Method: as §1

[17] = biological target: T17, hPD-1 ECD-His point mutant Q 133 (to alanine) (human, UniProt Q15116 25-170); assay: as above
T17 construct: extracellular domain
Method: as §1

[18] = biological target: T18, hPD-1 ECD-His point mutant I 134 (to alanine) (human, UniProt Q15116 25-170); assay: as above
T18 construct: extracellular domain
Method: as §1

[19] = biological target: T19, hPD-1 ECD-His point mutant K 135 (to alanine) (human, UniProt Q15116 25-170); assay: as above
T19 construct: extracellular domain
Method: as §1

[20] = biological target: T20, hPD-1 ECD-His point mutant L 142 (to alanine) (human, UniProt Q15116 25-170); assay: as above
T20 construct: extracellular domain
Method: as §1

[21] = biological target: T21, hPD-1 ECD-His point mutant V 144 (to alanine) (human, UniProt Q15116 25-170); assay: as above
T21 construct: extracellular domain
Method: as §1

T12 sequence (Q15116 other isoform, or with tags, fused parts or gaps mutant): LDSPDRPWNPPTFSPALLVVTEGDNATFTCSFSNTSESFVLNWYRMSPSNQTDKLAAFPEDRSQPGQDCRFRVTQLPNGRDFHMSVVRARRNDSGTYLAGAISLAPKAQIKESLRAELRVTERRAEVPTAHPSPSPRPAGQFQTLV
T17 sequence (Q15116 other isoform, or with tags, fused parts or gaps mutant): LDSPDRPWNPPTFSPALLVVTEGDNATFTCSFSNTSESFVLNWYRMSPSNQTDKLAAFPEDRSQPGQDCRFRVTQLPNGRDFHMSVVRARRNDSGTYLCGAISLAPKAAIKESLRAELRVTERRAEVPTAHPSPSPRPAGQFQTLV
T6 sequence (Q15116 other isoform, or with tags, fused parts or gaps mutant): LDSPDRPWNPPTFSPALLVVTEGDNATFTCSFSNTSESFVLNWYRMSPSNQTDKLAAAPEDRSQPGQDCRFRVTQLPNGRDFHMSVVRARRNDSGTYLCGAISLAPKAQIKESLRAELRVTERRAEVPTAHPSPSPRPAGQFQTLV
T7 sequence (Q15116 other isoform, or with tags, fused parts or gaps mutant): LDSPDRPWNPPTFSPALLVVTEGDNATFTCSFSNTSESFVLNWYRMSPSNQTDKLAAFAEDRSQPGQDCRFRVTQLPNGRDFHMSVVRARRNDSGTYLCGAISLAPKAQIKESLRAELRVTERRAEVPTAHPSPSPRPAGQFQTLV
T20 sequence (Q15116 other isoform, or with tags, fused parts or gaps mutant): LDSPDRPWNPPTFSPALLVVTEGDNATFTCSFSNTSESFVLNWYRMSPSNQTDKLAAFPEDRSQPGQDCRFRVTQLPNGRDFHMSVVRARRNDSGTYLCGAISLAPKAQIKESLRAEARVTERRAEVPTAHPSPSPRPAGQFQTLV
T5 sequence (Q15116 other isoform, or with tags, fused parts or gaps mutant): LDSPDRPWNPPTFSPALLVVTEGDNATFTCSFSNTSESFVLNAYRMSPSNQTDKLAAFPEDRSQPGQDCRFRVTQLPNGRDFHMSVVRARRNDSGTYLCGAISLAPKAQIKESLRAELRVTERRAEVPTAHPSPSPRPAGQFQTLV
T21 sequence (Q15116 other isoform, or with tags, fused parts or gaps mutant): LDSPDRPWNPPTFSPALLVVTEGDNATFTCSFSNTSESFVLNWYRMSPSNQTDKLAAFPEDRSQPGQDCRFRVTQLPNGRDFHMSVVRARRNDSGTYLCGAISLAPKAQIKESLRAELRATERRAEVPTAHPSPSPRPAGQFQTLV
T11 sequence (Q15116 other isoform, or with tags, fused parts or gaps mutant): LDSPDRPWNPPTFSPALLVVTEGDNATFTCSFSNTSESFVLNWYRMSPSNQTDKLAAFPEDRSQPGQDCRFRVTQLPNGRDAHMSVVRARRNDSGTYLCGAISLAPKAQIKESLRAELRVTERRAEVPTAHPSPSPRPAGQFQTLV
T9 sequence (Q15116 other isoform, or with tags, fused parts or gaps mutant): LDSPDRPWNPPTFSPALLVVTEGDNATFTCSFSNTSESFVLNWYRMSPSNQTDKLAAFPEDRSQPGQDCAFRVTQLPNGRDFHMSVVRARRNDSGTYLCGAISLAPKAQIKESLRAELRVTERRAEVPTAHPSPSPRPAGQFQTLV
T18 sequence (Q15116 other isoform, or with tags, fused parts or gaps mutant): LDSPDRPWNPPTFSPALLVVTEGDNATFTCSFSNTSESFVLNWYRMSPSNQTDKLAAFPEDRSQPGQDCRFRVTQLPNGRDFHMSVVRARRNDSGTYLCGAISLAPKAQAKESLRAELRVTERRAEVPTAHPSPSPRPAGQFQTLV
T10 sequence (Q15116 other isoform, or with tags, fused parts or gaps mutant): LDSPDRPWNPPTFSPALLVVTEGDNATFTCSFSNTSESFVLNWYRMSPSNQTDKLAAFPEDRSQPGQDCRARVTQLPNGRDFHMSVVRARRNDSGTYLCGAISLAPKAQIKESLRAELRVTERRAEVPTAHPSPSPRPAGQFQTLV
T19 sequence (Q15116 other isoform, or with tags, fused parts or gaps mutant): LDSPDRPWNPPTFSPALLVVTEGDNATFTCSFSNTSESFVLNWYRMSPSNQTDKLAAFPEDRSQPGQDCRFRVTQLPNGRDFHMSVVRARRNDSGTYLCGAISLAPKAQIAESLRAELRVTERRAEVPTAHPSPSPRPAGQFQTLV
T8 sequence (Q15116 other isoform, or with tags, fused parts or gaps mutant): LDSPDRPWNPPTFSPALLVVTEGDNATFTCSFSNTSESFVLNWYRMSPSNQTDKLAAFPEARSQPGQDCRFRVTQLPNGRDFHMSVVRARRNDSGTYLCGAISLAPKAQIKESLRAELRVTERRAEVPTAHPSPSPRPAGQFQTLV
T14 sequence (Q15116 other isoform, or with tags, fused parts or gaps mutant): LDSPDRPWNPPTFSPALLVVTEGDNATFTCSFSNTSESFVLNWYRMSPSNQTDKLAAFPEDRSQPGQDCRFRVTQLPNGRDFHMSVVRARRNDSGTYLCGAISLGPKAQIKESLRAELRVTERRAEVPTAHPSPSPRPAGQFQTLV
T13 sequence (Q15116 other isoform, or with tags, fused parts or gaps mutant): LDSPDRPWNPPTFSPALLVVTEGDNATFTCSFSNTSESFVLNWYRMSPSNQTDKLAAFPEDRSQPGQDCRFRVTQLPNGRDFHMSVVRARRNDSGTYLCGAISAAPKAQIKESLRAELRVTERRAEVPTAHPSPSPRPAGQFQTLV
T3 sequence (Q15116 other isoform, or with tags, fused parts or gaps mutant): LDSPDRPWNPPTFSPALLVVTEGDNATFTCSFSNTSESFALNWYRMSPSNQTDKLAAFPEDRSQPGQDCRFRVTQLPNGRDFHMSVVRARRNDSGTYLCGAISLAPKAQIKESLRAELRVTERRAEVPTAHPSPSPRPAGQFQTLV
T15 sequence (Q15116 other isoform, or with tags, fused parts or gaps mutant): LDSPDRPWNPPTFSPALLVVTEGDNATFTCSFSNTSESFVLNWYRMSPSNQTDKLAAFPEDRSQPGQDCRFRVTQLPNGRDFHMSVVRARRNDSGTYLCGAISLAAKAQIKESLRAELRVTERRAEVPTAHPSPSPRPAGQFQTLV
T4 sequence (Q15116 other isoform, or with tags, fused parts or gaps mutant): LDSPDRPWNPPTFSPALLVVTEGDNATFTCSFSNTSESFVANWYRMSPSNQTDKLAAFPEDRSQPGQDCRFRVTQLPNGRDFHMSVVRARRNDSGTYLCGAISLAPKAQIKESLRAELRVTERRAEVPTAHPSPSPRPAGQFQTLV
T16 sequence (Q15116 other isoform, or with tags, fused parts or gaps mutant): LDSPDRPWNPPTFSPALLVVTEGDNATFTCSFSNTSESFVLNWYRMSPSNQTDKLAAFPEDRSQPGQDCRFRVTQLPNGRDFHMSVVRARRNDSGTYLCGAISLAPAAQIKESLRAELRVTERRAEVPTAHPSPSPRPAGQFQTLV
T1 sequence (Q15116 25-288): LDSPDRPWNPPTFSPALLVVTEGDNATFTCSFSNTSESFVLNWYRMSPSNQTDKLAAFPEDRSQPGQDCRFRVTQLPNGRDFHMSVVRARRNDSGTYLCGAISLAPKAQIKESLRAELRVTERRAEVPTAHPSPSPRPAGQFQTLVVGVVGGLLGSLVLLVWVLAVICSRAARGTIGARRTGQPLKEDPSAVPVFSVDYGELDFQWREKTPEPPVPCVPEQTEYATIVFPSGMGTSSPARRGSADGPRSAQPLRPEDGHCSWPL
T2 sequence (Q15116 other isoform, or with tags, fused parts or gaps mutant): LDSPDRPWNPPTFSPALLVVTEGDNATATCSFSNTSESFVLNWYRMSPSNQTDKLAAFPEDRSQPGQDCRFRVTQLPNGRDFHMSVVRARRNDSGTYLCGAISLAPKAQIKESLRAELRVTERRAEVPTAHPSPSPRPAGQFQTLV

EC50 [1]: ~2 nM | fold change [2]: 0.59 | fold change [3]: 0.32 | fold change [4]: 0.75 | fold change [5]: 0.76 | fold change [6]: 0.65 | fold change [7]: 0.3 | fold change [8]: 0.24 | fold change [9]: 0.7 | fold change [10]: 0.63 | fold change [11]: 0.41 | fold change [12]: 0.46 | fold change [13]: 0.32 | fold change [14]: 0.22 | fold change [15]: 0.41 | fold change [16]: 0.43 | fold change [17]: 0.37 | fold change [18]: 0.69 | fold change [19]: 0.62 | fold change [20]: 0.44 | fold change [21]: 0.22
B1: 1.103.11 hAb (antibody, V domains shown)
VH: QLQLQESGPGLVKPSETLTLTCTVSADSISSTTYYWVWIRQPPGKGLEWIGSISYSGSTYYNPSLKSRVTVSVDTSKNQFSLKLNSVAATDTALYYCARHLGYNGRYLPFDYWGQGTLVTVSS
VL: QSALTQPASVSGSPGQSITISCTGTSSDVGFYNYVSWYQQHPGKAPELMIYDVSNRPSGVSDRFSGSKSGNTASLTISGLQAEDEADYYCSSYTNISTWVFGGGTKLTVL
notes: fully human monoclonal antibody with a human constant region of IgG4 isotype
